Data on six substances can be found in article PMC4770077.

Common to all, as to assay: BLI; biotinylated trimeric gp140 immobilised on streptavidin biosensors; Fabs 1-32 uM in solution; 30 C, 1,000 r.p.m.; kinetic buffer (1X PBS, 0.01% BSA, 0.02% Tween 20, 0.005% NaN3); association 4 min, dissociation 8 min; 1:1 binding model; mean of curves with R2 >= 0.95
For test [1], the target named is 426c.TM5 soluble trimeric gp140 (426c N276D S278R N460D N463D G471S) (HIV-1 (clade C, 426c)).
The target of test [2] is 426c.TM5ΔV1-3 soluble trimeric gp140 (426c N276D S278R N460D N463D G471S ΔV1 V2 V3) (HIV-1 (clade C, 426c)).
Test [3] deals with 426c.TM2 soluble trimeric gp140 (426c S278A N460D N463D) (HIV-1 (clade C, 426c)).
The target of test [4] is 426c.TM1 soluble trimeric gp140 (426c N276D N460D N463D) (HIV-1 (clade C, 426c)).
Test [5] concerns the target 426c.TM4 soluble trimeric gp140 (426c S278R N460D N463D G471S) (HIV-1 (clade C, 426c)).
For test [6], the target named is 426c.TM3 soluble trimeric gp140 (426c S278R N460D N463D) (HIV-1 (clade C, 426c)).
Test [7] concerns the target 426c.TM1ΔV1-3 soluble trimeric gp140 (426c N276D N460D N463D ΔV1 V2 V3) (HIV-1 (clade C, 426c)).
The target in test [8] is 426c.TM4ΔV1-3 soluble trimeric gp140 (426c S278R N460D N463D G471S ΔV1 V2 V3) (HIV-1 (clade C, 426c)).

One may read the koff as a measure of how fast the partners let go of each other. Read a low koff as a long-lived complex. Usually kon stands for the rate constant with which the complex forms. High values mean faster complex formation, low ones slower complex formation. As for germline VRC01 Fab, the Ka came out at 1.14e+07 M⁻¹ in test [1]; 1.06e+07 M⁻¹ in test [2]; 628000 M⁻¹ in test [3]; 1.31e+06 M⁻¹ in test [4]; 1.08e+06 M⁻¹ in test [5]; 562000 M⁻¹ in test [6]. Also, the Ka in test [7] was determined as 3.09e+06 M⁻¹; in test [8], 1.47e+06 M⁻¹. Also, the koff stood at 0.00225 s⁻¹ in test [1]; 0.00065 s⁻¹ in test [2]; 0.0579 s⁻¹ in test [3]; 0.0113 s⁻¹ in test [4]; 0.0264 s⁻¹ in test [5]; 0.064 s⁻¹ in test [6]. For the same substance, the koff in test [7] was 0.00157 s⁻¹; in test [8], 0.00426 s⁻¹. Moreover, the kon in test [1] amounted to 25600 M⁻¹ s⁻¹; in test [2] it was 6860 M⁻¹ s⁻¹; in test [3] it was 36300 M⁻¹ s⁻¹; in test [4], 14800 M⁻¹ s⁻¹; in test [5], 28700 M⁻¹ s⁻¹; in test [6], 36000 M⁻¹ s⁻¹. Moreover, the kon was 4840 M⁻¹ s⁻¹ in test [7] and 6250 M⁻¹ s⁻¹ in test [8].
In the case of germline 12A21 Fab, the Ka in test [1] was determined as 38500 M⁻¹; in test [2], 30800 M⁻¹; in test [3], 201000 M⁻¹; in test [5], 334000 M⁻¹; in test [6] it was 174000 M⁻¹; in test [8], 311000 M⁻¹. Further, the koff in test [1] was found to be 0.403 s⁻¹; in test [2] it was 0.0515 s⁻¹; in test [3] it was 0.274 s⁻¹; in test [5] it was 0.168 s⁻¹; in test [6], 0.279 s⁻¹; in test [8] it was 0.0305 s⁻¹. The kon was 15500 M⁻¹ s⁻¹ in test [1]; 1590 M⁻¹ s⁻¹ in test [2]; 55200 M⁻¹ s⁻¹ in test [3]; 56200 M⁻¹ s⁻¹ in test [5]; 48500 M⁻¹ s⁻¹ in test [6]; 9470 M⁻¹ s⁻¹ in test [8].
For germline VRC-PG20 Fab, the Ka in test [1] was found to be 1.78e+08 M⁻¹; in test [2], 2.45e+08 M⁻¹; in test [3] it was 3.88e+06 M⁻¹; in test [4] it was 1.4e+07 M⁻¹; in test [5] it was 2.28e+07 M⁻¹; in test [6], 1.2e+07 M⁻¹. The Ka in test [7] was 1.24e+07 M⁻¹; in test [8] it was 3.84e+07 M⁻¹. Further, the koff turned out to be 0.000553 s⁻¹ in test [1]; 0.000149 s⁻¹ in test [2]; 0.0129 s⁻¹ in test [3]; 0.00343 s⁻¹ in test [4]; 0.00257 s⁻¹ in test [5]; 0.00487 s⁻¹ in test [6]. For the same substance, the figures for the off-rate constant (koff) in test [7] and in test [8] were 0.00104 s⁻¹ and 0.000511 s⁻¹, respectively. In addition, the kon came to 112000 M⁻¹ s⁻¹ in test [1]; 41200 M⁻¹ s⁻¹ in test [2]; 50900 M⁻¹ s⁻¹ in test [3]; 49700 M⁻¹ s⁻¹ in test [4]; 61100 M⁻¹ s⁻¹ in test [5]; 60500 M⁻¹ s⁻¹ in test [6]. Also, the kon came out at 13500 M⁻¹ s⁻¹ in test [7] and 24500 M⁻¹ s⁻¹ in test [8].
germline VRC-CH31 Fab: in test [2], the Ka was 8950 M⁻¹, the koff was 0.24 s⁻¹ and the on-rate (kon) is 2400 M⁻¹ s⁻¹.
Take germline VRC-PG19 Fab: the Ka was 5.22e+06 M⁻¹ in test [1]; 8.93e+06 M⁻¹ in test [2]; 416000 M⁻¹ in test [3]; 287000 M⁻¹ in test [4]; 5.45e+06 M⁻¹ in test [5]; 2.24e+06 M⁻¹ in test [6]. The Ka came to 353000 M⁻¹ in test [7] and 8.9e+06 M⁻¹ in test [8]. Besides, the koff in test [1] turned out to be 0.016 s⁻¹; in test [2] it was 0.00216 s⁻¹; in test [3], 0.172 s⁻¹; in test [4], 0.14 s⁻¹; in test [5], 0.018 s⁻¹; in test [6], 0.0442 s⁻¹. In addition, the koff in test [7] is 0.0315 s⁻¹; in test [8], 0.0027 s⁻¹. For the same substance, the on-rate (kon) is 83800 M⁻¹ s⁻¹ in test [1]; 19300 M⁻¹ s⁻¹ in test [2]; 71500 M⁻¹ s⁻¹ in test [3]; 40000 M⁻¹ s⁻¹ in test [4]; 98000 M⁻¹ s⁻¹ in test [5]; 98900 M⁻¹ s⁻¹ in test [6]. The figures for the kon in test [7] and in test [8] were 11100 M⁻¹ s⁻¹ and 24100 M⁻¹ s⁻¹, respectively.
In test [2], germline 3BNC60 Fab displayed a Ka of 2180 M⁻¹, a koff of 0.477 s⁻¹ and an association rate constant (kon) of 1040 M⁻¹ s⁻¹. In test [8], this substance registered a Ka of 3490 M⁻¹, an off-rate constant (koff) of 0.398 s⁻¹ and an association rate constant (kon) of 1410 M⁻¹ s⁻¹.
